The target of experiment [1] is T1, Flag-tagged Pds5b, co-expressed with Nek2aΔMR and Δ86-cyclin A2 (human, UniProt Q9NTI5 1-1447).
T1 sequence: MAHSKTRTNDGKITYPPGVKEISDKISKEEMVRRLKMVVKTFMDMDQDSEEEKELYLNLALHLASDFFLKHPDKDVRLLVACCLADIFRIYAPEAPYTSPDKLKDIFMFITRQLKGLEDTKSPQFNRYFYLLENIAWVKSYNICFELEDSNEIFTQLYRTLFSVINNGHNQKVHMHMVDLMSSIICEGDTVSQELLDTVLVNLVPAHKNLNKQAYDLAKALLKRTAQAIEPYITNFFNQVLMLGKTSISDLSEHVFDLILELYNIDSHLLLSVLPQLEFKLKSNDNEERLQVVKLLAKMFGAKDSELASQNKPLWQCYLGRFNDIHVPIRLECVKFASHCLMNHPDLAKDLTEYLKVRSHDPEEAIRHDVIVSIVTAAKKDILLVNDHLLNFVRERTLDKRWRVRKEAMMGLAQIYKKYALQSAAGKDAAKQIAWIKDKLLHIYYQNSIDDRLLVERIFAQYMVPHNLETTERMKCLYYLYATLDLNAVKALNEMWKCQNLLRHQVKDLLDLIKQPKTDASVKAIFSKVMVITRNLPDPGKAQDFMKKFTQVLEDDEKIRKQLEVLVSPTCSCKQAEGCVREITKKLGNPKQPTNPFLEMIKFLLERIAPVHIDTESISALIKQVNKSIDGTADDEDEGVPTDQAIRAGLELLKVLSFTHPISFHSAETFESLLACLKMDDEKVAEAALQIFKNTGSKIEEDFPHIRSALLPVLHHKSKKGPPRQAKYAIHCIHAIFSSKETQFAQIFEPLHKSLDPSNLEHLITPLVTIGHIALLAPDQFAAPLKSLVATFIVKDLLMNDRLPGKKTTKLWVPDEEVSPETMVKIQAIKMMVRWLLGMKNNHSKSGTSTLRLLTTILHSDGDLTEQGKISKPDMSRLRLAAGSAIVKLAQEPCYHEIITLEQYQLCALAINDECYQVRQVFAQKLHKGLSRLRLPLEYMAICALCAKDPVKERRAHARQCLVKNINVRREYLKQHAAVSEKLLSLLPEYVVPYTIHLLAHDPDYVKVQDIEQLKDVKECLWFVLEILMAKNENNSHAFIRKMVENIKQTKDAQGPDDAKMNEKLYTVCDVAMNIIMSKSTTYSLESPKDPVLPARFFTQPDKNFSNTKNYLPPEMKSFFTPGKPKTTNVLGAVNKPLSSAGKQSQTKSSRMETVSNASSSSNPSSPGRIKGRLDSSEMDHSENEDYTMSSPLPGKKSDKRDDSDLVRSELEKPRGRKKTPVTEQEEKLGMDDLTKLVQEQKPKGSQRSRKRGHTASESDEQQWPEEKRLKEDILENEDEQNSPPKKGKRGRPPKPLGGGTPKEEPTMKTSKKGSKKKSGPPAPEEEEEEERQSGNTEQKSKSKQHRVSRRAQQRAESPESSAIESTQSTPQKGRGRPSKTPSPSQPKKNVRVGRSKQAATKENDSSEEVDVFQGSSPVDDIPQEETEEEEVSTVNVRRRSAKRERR
As to the kind of experiment: pull-down.

A further experiment deals with T2, Flag-tagged Pds5a (human, UniProt Q29RF7 1-1337).
T2 sequence: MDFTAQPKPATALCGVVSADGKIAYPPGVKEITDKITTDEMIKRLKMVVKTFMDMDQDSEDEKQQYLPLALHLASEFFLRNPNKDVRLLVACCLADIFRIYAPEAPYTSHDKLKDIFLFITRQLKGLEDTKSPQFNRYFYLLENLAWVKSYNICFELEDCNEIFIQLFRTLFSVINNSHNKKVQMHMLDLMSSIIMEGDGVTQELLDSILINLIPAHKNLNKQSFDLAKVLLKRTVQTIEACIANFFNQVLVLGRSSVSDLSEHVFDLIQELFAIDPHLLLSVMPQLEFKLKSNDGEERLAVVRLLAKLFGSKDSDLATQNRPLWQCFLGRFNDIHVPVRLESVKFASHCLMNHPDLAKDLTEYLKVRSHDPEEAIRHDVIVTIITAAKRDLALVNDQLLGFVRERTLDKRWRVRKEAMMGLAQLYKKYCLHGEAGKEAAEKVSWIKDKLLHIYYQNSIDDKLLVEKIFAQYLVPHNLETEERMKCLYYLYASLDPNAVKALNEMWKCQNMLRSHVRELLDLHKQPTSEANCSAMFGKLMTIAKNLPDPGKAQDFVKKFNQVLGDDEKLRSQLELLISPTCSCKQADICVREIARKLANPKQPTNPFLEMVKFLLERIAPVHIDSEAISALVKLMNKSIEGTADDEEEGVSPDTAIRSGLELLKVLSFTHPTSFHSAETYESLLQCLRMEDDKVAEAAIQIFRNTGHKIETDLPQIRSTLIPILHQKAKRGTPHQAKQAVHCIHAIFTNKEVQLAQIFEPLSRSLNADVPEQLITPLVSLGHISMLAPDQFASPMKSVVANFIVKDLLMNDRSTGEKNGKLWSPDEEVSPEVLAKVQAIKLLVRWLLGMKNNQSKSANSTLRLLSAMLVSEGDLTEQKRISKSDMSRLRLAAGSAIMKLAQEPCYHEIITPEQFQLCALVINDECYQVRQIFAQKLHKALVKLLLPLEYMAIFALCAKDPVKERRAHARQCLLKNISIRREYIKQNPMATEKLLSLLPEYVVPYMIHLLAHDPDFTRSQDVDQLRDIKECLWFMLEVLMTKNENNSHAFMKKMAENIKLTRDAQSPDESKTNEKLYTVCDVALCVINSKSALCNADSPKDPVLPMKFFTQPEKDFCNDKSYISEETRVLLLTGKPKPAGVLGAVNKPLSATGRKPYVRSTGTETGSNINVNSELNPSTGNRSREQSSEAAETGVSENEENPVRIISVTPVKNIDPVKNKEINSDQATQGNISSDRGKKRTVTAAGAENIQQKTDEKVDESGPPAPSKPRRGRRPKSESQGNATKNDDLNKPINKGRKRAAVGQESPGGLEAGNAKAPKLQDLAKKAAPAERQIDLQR
As to the kind of experiment: pull-down.

B1: recombinant human Wapl (natural protein)
chain: MTSRFGKTYSRKGGNGSSKFDEVFSNKRTTLSTKWGETTFMAKLGQKRPNFKPDIQEIPKKPKVEEESTGDPFGFDSDDESLPVSSKNLAQVKCSSYSESSEAAQLEEVTSVLEANSKISHVVVEDTVVSDKCFPLEDTLLGKEKSTNRIVEDDASISSCNKLITSDKVENFHEEHEKNSHHIHKNADDSTKKPNAETTVASEIKETNDTWNSQFGKRPESPSEISPIKGSVRTGLFEWDNDFEDIRSEDCILSLDSDPLLEMKDDDFKNRLENLNEAIEEDIVQSVLRPTNCRTYCRANKTKSSQGASNFDKLMDGTSQALAKANSESSKDGLNQAKKGGVSCGTSFRGTVGRTRDYTVLHPSCLSVCNVTIQDTMERSMDEFTASTPADLGEAGRLRKKADIATSKTTTRFRPSNTKSKKDVKLEFFGFEDHETGGDEGGSGSSNYKIKYFGFDDLSESEDDEDDDCQVERKTSKKRTKTAPSPSLQPPPESNDNSQDSQSGTNNAENLDFTEDLPGVPESVKKPINKQGDKSKENTRKIFSGPKRSPTKAVYNARHWNHPDSEELPGPPVVKPQSVTVRLSSKEPNQKDDGVFKAPAPPSKVIKTVTIPTQPYQDIVTALKCRREDKELYTVVQHVKHFNDVVEFGENQEFTDDIEYLLSGLKSTQPLNTRCLSVISLATKCAMPSFRMHLRAHGMVAMVFKTLDDSQHHQNLSLCTAALMYILSRDRLNMDLDRASLDLMIRLLELEQDASSAKLLNEKDMNKIKEKIRRLCETVHNKHLDLENITTGHLAMETLLSLTSKRAGDWFKEELRLLGGLDHIVDKVKECVDHLSRDEDEEKLVASLWGAERCLRVLESVTVHNPENQSYLIAYKDSQLIVSSAKALQHCEELIQQYNRAEDSICLADSKPLPHQNVTNHVGKAVEDCMRAIIGVLLNLTNDNEWGSTKTGEQDGLIGTALNCVLQVPKYLPQEQRFDIRVLGLGLLINLVEYSARNRHCLVNMETSCSFDSSICSGEGDDSLRIGGQVHAVQALVQLFLERERAAQLAESKTDELIKDAPTTQHDKSGEWQETSGEIQWVSTEKTDGTEEKHKKEEEDEELDLNKALQHAGKHMEDCIVASYTALLLGCLCQESPINVTTVREYLPEGDFSIMTEMLKKFLSFMNLTCAVGTTGQKSISRVIEYLEHC
As to B1, the binding result (in experiment [1]; in the experiment with Flag-tagged Pds5a) was “binds” in each case.

The values are drawn from paper doi:10.1101/2024.03.12.584565 (bioRxiv, 2024).
